Assay results from article PMC4721547, “Cyclophilin40 isomerase activity is regulated by a temperature-dependent allosteric interaction with Hsp90” (Bioscience Reports, 2015).

Columns and labels:
[1] = target: Cyclophilin 40 (human; pDEST14-6H-TEV-hCyp40) (human) (UniProt Q08752)
[2] = target: T1, Cyclophilin 40 (human; pDEST14-6H-TEV-hCyp40) (human, UniProt Q08752 1-370); test: ITC; 500 uM SRMEEVD titrated into 7.7 uM Cyp40 in 15 x 2.5 ul aliquots; 50 mM Hepes pH 8, 100 mM sodium chloride, 1 mM DTT; 1:1 binding model; 30 °C (highest attainable temperature); conditions: both partners purified
T1 construct: Cyclophilin 40 (Cyp40, PPID), human; construct pDEST14-6H-TEV-hCyp40; Monomeric by dynamic light scattering; also called PPID; source: E. coli BL21 star (DE3), purified (IMAC, gel filtration on Superdex 200)
T1 sequence (Q08752 whole entry): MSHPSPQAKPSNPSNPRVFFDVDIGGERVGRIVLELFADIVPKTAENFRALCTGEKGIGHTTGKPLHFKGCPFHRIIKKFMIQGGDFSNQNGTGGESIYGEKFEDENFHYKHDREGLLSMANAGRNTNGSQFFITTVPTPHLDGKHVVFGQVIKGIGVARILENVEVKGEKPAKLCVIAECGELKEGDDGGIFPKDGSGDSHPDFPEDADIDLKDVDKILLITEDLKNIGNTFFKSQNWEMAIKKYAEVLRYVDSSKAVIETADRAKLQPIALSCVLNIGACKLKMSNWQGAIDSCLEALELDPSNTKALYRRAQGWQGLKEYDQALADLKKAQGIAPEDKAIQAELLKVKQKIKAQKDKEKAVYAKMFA

[3] = target: T1, Cyclophilin 40 (human; …); test: ITC; 500 uM SRMEEVD titrated into 7.7 uM Cyp40 in 15 x 2.5 ul aliquots; 50 mM Hepes pH 8, 100 mM sodium chloride, 1 mM DTT; 1:1 binding model; 20 °C (value told with Supplementary Figure S2); conditions: both partners purified
[4] = target: T1, Cyclophilin 40 (human; …); test: ITC; 500 uM SRMEEVD titrated into 7.7 uM Cyp40 in 15 x 2.5 ul aliquots; 50 mM Hepes pH 8, 100 mM sodium chloride, 1 mM DTT; 1:1 binding model; 10 °C; conditions: both partners purified

Chain of Cyclophilin 40 (human; pDEST14-6H-TEV-hCyp40) (human) (Q08752 whole entry): as above

Binder	reduction of the PPIase activity of Cyp40 (10 nM) by 250 uM peptide, substrate Suc-A-A-P-F-p-NA, 10 °C [1]	Kd [2]	Kd [3]	Kd [4]
GPTIEEVD [GPTIEEVD peptide (Hsp70 wild-type C-terminal peptide)]	> 30%	–	–	–
GAAAEEVD [GAAAEEVD peptide (Hsp70 mutant C-terminal peptide)]	> 30%	–	–	–
SRMEEVD (also called Hsp90 peptide; Hsp90 wt) [SRMEEVD peptide (Hsp90 wild-type C-terminal peptide)]	–	~25 µM	10.7 µM	~5 µM
